This series deals with the molecule itself. The experiment in a line: crystal structure.

B1: human DJ-1, wild type (natural protein)
chain: GSHMASKRALVILAKGAEEMETVIPVDVMRRAGIKVTVAGLAGKDPVQCSRDVVICPDASLEDAKKEGPYDVVVLPGGNLGAQNLSESAAVKEILKEQENRKGLIAAICAGPTALLAHEIGFGSKVTTHPLAKDKMMNGGHYTYSENRVEKDGLILTSRGPGTSFEFALAIVEALNGKEVAAQVKAPLVLKD
One may read the stoichiometry N as a count of units in the complex or per binding partner. In the case of B1, the “stoichiometry N” value stood at 2.

B2: human DJ-1 D24N (natural protein)
chain: GSHMASKRALVILAKGAEEMETVIPVNVMRRAGIKVTVAGLAGKDPVQCSRDVVICPDASLEDAKKEGPYDVVVLPGGNLGAQNLSESAAVKEILKEQENRKGLIAAICAGPTALLAHEIGFGSKVTTHPLAKDKMMNGGHYTYSENRVEKDGLILTSRGPGTSFEFALAIVEALNGKEVAAQVKAPLVLKD
For B2, the binding result is “binds”.

The values are drawn from publication PMC5805389 (Biochemistry, 2016).
